From patent US8703915B2, “Mutant proteins and methods for producing them” (Heptares Therapeutics Limited, priority 2009, dated 2014) come the findings set out here.

For data set [1], the system named is CRF1. Nature of the data set: Thermostability of CRF1 bound to antagonist CP-376395, purified in DDM. It counts as physicochemical, human. Particulars: antagonist-bound state (CP-376395), purified in DDM. On the procedure:
In order to stabilise CRF1 in the antagonist conformation, a systematic alanine-scan was performed to identify mutations that stabilise receptors bound to the antagonist ligand CP-376395. Mutating I2.58 to alanine (I163A) confers significant stabilisation in CRF1, increasing the thermal stability by 3.9 (±0.5)° C. (FIG. 15).
CRF1 receptors were transiently expressed in HEK293T cells on 10 cm plates using GeneJuice transfection reagent used according to manufacturers guidelines.
Cells expressing CRF1 were harvested in PBS approximately 40 hours post-transfection and re-suspended in 950 μl Re-suspension buffer (50 mM Tris-HCl, 150 mM NaCl, 2× Complete EDTA-free Protease inhibitor cocktail (Roche), pH7.5). Cells were incubated with 120 nM CP-376395 and 30 nM [^3H]-CP-376395 at 37° C. for 2 hours before transferring to ice for 5 minutes. The receptors were solubilised by the addition of 1% DDM and incubated at 4° C. for 1 hour with gentle agitation. Insoluble material was removed by centrifugation at 16000×g for 10 minutes at 4° C. The solubilised receptors were partially purified with Ni-NTA agarose (Qiagen). Ni-NTA resin was equilibrated in Equilibration buffer (50 mM Tris-HCl, 150 mM NaCl, 2× Complete EDTA-free Protease inhibitor cocktail (Roche), 0.025% DDM, pH7.5) and 400 μl of a 50:50 resin slurry was added to each sample. Resin slurries were incubated at 4° C. for 1 hour 30 minutes with gentle agitation to bind receptors. Resin slurries were then transferred to a batch column filter plate (Chromabond) and centrifuged at 1000×g for 1 minute, discarding the flow-through. Resin was washed twice with 1 ml of Wash buffer (50 mM Tris-HCl, 150 mM NaCl, 2× Complete EDTA-free Protease inhibitor cocktail (Roche), 0.025% DDM, 20 mM Imidazole, pH7.5) and then eluted in 1 ml of Elution buffer (50 mM Tris-HCl, 150 mM NaCl, 2× Complete EDTA-free Protease inhibitor cocktail (Roche), 0.025% DDM, 100 mM histidine, 30 nM [^3H]-CP-376395, 120 nM CP-376395, pH7.5) by resuspension at 4° C. for 30 minutes. Eluted samples were used directly in the thermostability assay. […]

Data set [2] has as its system OX2 receptor. Nature of the data set: Thermostability of OX2 receptor bound to antagonist EMPA. It counts as physicochemical, human. Particulars: bound to antagonist EMPA. Here is the method:
(§1) Transiently transfected mammalian cells expressing M4 were harvested about 40 hours post transfection and the receptors were solubilised in 50 mM Tris pH 7.5/250 mM NaCl/1% DDM/EDTA free protease inhibitor mix for 1 hour rotating at 4° C. The solubilised lysate was then cleared by centrifugation at 13000 rpm for 15 minutes at 4° C. The solubilised receptors were then purified on Ni-NTA beads and eluted with 100 mM histidine. The eluted receptor was used in radioligand binding assay. Thermostability of M4 was measured using 25 μL of purified receptor mixed with 95 μL of 12 nM [^3H]-NMS (final concentration of 10 nM). The sample was incubated for 60 min at 4° C., then 30 min at the specified temperature and then 30 min at 4° C. Receptor bound and free radioligand were separated using a 96-well plate gel filtration assay.
A tandem alanine and leucine scanning mutagenesis strategy was used to identify mutations that enhanced the thermostability of OX2 bound to the small-molecule antagonist EMPA.
Thermostability assays were preformed on partially purified receptors as described for M4, with the following amendments. Cell lysates were solubilised in 50 mM Tris pH7.4, 150 mM NaCl, 1% DDM supplemented with 1× complete EDTA free protease inhibitor cocktail (Roche). Radioligand binding reactions were set up using 1/10 volume eluted receptor mixed with 20 nM ^3H-EMPA (final concentration) per temperature point.

Data set [3] deals with M4 muscarinic receptor. Nature of the data set: Thermostability of M4 muscarinic receptor bound to antagonist NMS. It counts as physicochemical, human. Particulars: bound to antagonist NMS. On the procedure: In order to stabilise the M4 muscarinic receptors in antagonist conformation, a systematic alanine-scan was performed to identify mutations that stabilise receptors bound to the muscarinic antagonist, NMS. […] However, L71A (three residues N-terminal of the L2.46) was identified as a stabilising mutation. This mutation increases the Tm of this receptor by about 2° C. (FIG. 8a).
(§2) A2AR-(2-316) expression was carried out by using the pRG/III-hs-MBP E. coli expression vector and DH5α cells. Cells were grown at 37° C. in 2 L flasks containing 500 mL of 2×TY medium supplemented with Ampicillin (100 μg/mL) and glucose (0.2% w/v). At OD600≈0.7, IPTG and theophylline were added at final concentrations respectively of 0.5 mM and 100 μM, and the temperature was reduced to 20° C. After 22 to 24 hours, cells were harvested in aliquots of 14 mL, centrifuged for 30 min and stored at −20° C. Both 5HT2C and M4 receptors were transiently expressed in HEK293T cells using GeneJuice transfection reagent used according to the manufacturers guidelines.
as §1

For data set [4], the system named is 5HT2C receptor. The data set can be described thus: Antagonist binding to 5HT2C NPxxY motif alanine mutants (Table 1). Details: species or system human; Average / Average - BG: unit not given here. On the procedure: An alanine scan was carried out in a similar fashion on an adenosine A2A receptor along with the 5HT2C receptor in the presence of the antagonist Mesulergine. Both alanine scans were carried out in order to further stabilize the antagonist conformation. […] The motif in Adenosine A2A is NPFIY (SEQ ID NO: 364) and for the 5HT2C is NPLVY (SEQ ID NO: 363). Therefore mutations in this region of the receptor contain stabilising mutations specific to the agonist conformation and detrimentally effect antagonist binding.
(§3) 5HT2C receptor was solubilised from transiently transfected mammalian cells about 40 hours post transfection, in 50 mM Hepes pH7.4/100 mM KCl/0.5% DDM/(0.1% CHS/0.6% CHAPS was added to cells for SCH23390 agonist assay) and protease inhibitor. Cell lysates were left at 4° C. on a rotator and then cleared by centrifugation at 13,200 rpm for 20 minutes at 4° C. Thermostability analysis was performed directly on the soluble lysate. The Tm was determined by incubating 108 μl of the lysate with [N^6-methyl-^3H]Mesulergine radioligand at a final concentration of 17 nM or 9 nM [^3H]SCH23390 for one hour at 4° C. The six ligand incubations are then incubated at six different temperatures from 25° C. to 55° C., for thirty minutes. Receptor bound and free radioligand were separated using G25 Sephadex spin columns.

The subject of data set [5] is 5HT2C receptor. The data set can be described thus: Thermostability of 5HT2C receptor bound to antagonist mesulergine. The class given is physicochemical, human. The conditions noted are these: bound to antagonist (mesulergine). On the procedure: as §2
(§4) 5HT2C receptor was solubilised from transiently transfected mammalian cells in 50 mM Hepes pH7.4, 100 mM KCl, 0.5% DDM (0.1% CHS/0.6% CHAPS was added to cells for SCH23390 agonist assay). Tm analysis was performed directly on the soluble lysate. The Tm was determined by incubating 108 μl of the lysate with [N^6-methyl-^3H]Mesulergine radioligand at a final concentration of 17 nM or 9 nM [^3H]SCH23390 for one hour at 4° C. The six ligand incubations are then incubated at six different temperatures from 25° C. to 55° C., for thirty minutes. Receptor bound and free radioligand were separated using a 96-well plate gel filtration assay.

Data set [6] concerns 5HT2C receptor. The data set can be described thus: Thermostability of 5HT2C receptor bound to agonist SCH23390. It counts as physicochemical, human. Particulars: bound to agonist SCH23390. Here is the method: An alanine scan has been carried out on the 5HT2C receptor in the presence of the agonist SCH23390 in order to stabilise the agonist conformation. Similar to A2A, it appears that mutating L2.46 (L95 in 5HT2C) to alanine confers significant stability on this receptor increasing the Tm of the receptor by 5.4° C. (FIG. 7). It is notable that in addition to L95, mutating the nearby M93 (two residues away from L2.46) to alanine also confers stability to the agonist bound receptor, resulting in an increase of 2.9° C.
as §2, §4, §3

B1: CRF1-WT: wild type human CRF1 receptor (protein, UniProt P34998 24-415, looked up)
Corticotropin-releasing …: SLQDQHCESLSLASNISGLQCNASVDLIGTCWPRSPAGQLVVRPCPAFFYGVRYNTTNNGYRECLANGSWAARVNYSECQEILNEEKKSKVHYHVAVIINYLGHCISLVALLVAFVLFLRLRSIRCLRNIIHWNLISAFILRNATWFVVQLTMSPEVHQSNVGWCRLVTAAYNYFHVTNFFWMFGEGCYLHTAIVLTYSTDRLRKWMFICIGWGVPFPIIVAWAIGKLYYDNEKCWFGKRPGVYTDYIYQGPMILVLLINFIFLFNIVRILMTKLRASTTSETIQYRKAVKATLVLLPLLGITYMLFFVNPGEDEVSRVVFIYFNSFLESFQGFFVSVFYCFLNSEVRSAIRKRWHRWQDKHSIRARVARAMSIPTSPTRVSFHSIKQSTAV
B1: in data set [1], the Tm was 26.8 °C.

B2: OX2WT: wild type human orexin 2 receptor (protein, UniProt O43614 1-444, looked up)
Orexin receptor type 2: MSGTKLEDSPPCRNWSSASELNETQEPFLNPTDYDDEEFLRYLWREYLHPKEYEWVLIAGYIIVFVVALIGNVLVCVAVWKNHHMRTVTNYFIVNLSLADVLVTITCLPATLVVDITETWFFGQSLCKVIPYLQTVSVSVSVLTLSCIALDRWYAICHPLMFKSTAKRARNSIVIIWIVSCIIMIPQAIVMECSTVFPGLANKTTLFTVCDERWGGEIYPKMYHICFFLVTYMAPLCLMVLAYLQIFRKLWCRQIPGTSSVVQRKWKPLQPVSQPRGPGQPTKSRMSAVAAEIKQIRARRKTARMLMIVLLVFAICYLPISILNVLKRVFGMFAHTEDRETVYAWFTFSHWLVYANSAANPIIYNFLSGKFREEFKAAFSCCCLGVHHRQEDRLTRGRTSTESRKSLTTQISNFDNISKLSEQVVLTSISTLPAANGAGPLQNW
In the case of B2, the Tm in data set [2] was found to be 28.47 °C.

B3: M4: parent human M4 muscarinic receptor (protein, UniProt P08173 1-479, looked up)
Muscarinic acetylcholine …: MANFTPVNGSSGNQSVRLVTSSSHNRYETVEMVFIATVTGSLSLVTVVGNILVMLSIKVNRQLQTVNNYFLFSLACADLIIGAFSMNLYTVYIIKGYWPLGAVVCDLWLALDYVVSNASVMNLLIISFDRYFCVTKPLTYPARRTTKMAGLMIAAAWVLSFVLWAPAILFWQFVVGKRTVPDNQCFIQFLSNPAVTFGTAIAAFYLPVVIMTVLYIHISLASRSRVHKHRPEGPKEKKAKTLAFLKSPLMKQSVKKPPPGEAAREELRNGKLEEAPPPALPPPPRPVADKDTSNESSSGSATQNTKERPATELSTTEATTPAMPAPPLQPRALNPASRWSKIQIVTKQTGNECVTAIEIVPATPAGMRPAANVARKFASIARNQVRKKRQMAARERKVTRTIFAILLAFILTWTPYNVMVLVNTFCQSCIPDTVWSIGYWLCYVNSTINPACYALCNATFKKTFRHLLLCQYRNIGTAR
For B3, the Tm in data set [3] was determined as 34.0 °C.

B4: 5HT2C: wild type (parent) human 5HT2C receptor (protein, listed as Homo sapiens)
chain: MVNLRNAVHSFLVHLIGLLVWQCDISVSPVAAIVTDIFNTSDGGRFKFPDGVQNWPALSIVIIIIMTIGGNILVIMAVSMEKKLHNATNYFLMSLAIADMLVGLLVMPLSLLAILYDYVWPLPRYLCPVWISLDVLFSTASIMHLCAISLDRYVAIRNPIEHSRFNSRTKAIMKIAIVWAISIGVSVPIPVIGLRDEEKVFVNNTTCVLNDPNFVLIGSFVAFFIPLTIMVITYCLTIYVLRRQALMLLHGHTEEPPGLSLDFLKCCKRNTAEEENSANPNQDQNARRRKKKERRPRGTMQAINNERKASKVLGIVFFVFLIMWCPFFITNILSVLCEKSCNQKLMEKLLNVFVWIGYVCSGINPLVYTLFNKIYRRAFSNYLRCNYKVEKKPPVRQIPRVAATALSGRELNVNIYRHTNEPVIEKASDNEPGIEMQVENLELPVNPSSVVSERISSV
On to B4, for which the “% of Wildtype binding” value in data set [4] (antagonist Mesulergine binding) was 100%. In data set [4] (antagonist Mesulergine binding, replicate 1), this molecule showed a DPM1 of 10202 DPM. The molecule also gave a DPM2 in data set [4] (antagonist Mesulergine binding, replicate 2) of 9631 DPM. Further, the “Average - BG” value in data set [4] (average minus background) was 9208. This molecule also displayed an Average in data set [4] (average of DPM1 and DPM2) of 9916.5. Further, the Tm in data set [5] was determined as 37.1 °C; in data set [6], 43.35 °C.
